For one molecule, Ka results are on record in patent publication US20170066829A1 (published 2017).

The assay deals with HER2 molecule (antigen of the affinity ELISA of FIG. 4) (UniProt P04626 23-652, limits assumed). The assay is described as follows: ELISA with dilutions of HRP-conjugated Hersintuzumab, sigmoidal OD 450 nm curves. On the technique in general: In an ELISA, binding on a coated surface is turned into a signal by an enzyme label.

B1: Hersintuzumab (antibody, V domains shown)
VH: EVKLVESGGGLVKPGGSLRLSCATSGFSFSSYYMYWVRQAPGKRLEWVAYISSGSEIYYSDSVKGRFTISRDSAKNTLYLQMNSLRAEDTAVYYCARLGDDGMDVWGQGTTVTVSS
VL: DIVMTQSPSSLSASVGDRVTITCRASQNVRTAVAWFQQKPGKAPKALIYLASNRHTGVPDRFTGSGSGTEFTLTISNLQPEDFATYFCLQHNSYPLTFGGGTKVEIK
notes: also called humanized anti-HER2 antibody; humanized monoclonal anti-HER2 antibody
Regarding B1, the Ka amounted to 6e+08 M⁻¹.
